Data published in the Human Domainome abundance scans (Beltran et al. 2025).

B1: Integrator complex subunit 12, residues 155 to 213; numbered along this chain, Q96CB8 (parent)
chain: AMEMGLACVVCRQMMVASGNQLVECQECHNLYHRDCHKPQVTDKEANDPRLVWYCARCT
B2: RUN and FYVE domain-containing protein 1, residues 639 to 698; numbered along this chain, Q96T51 (parent)
chain: WLKDDEATHCRQCEKEFSISRRKHHCRNCGHIFCNTCSSNELALPSYPKPVRVCDSCHTL

Variants of: B1
Experiment: abundance fitness (aPCA) (normalised: wild type 0, dead -1); higher = more abundant; growth selection in yeast, the domain comes from the species named
Details: Homo sapiens

Abundance fitness, by site and new letter:
V52: I -0.095 | L -0.018 | P 0.019 | Y -0.284 | W -0.36 | K 0.103 | H -0.036 | F -0.126 | T 0.034 | G 0.023 | M -0.033 | A 0.036 | D 0.025 | R -0.032 | N -0.012 | C -0.009
R57: F -0.234 | H -0.046 | S -0.026 | E -0.013 | G 0.051 | M -0.134 | L -0.122 | K -0.029 | A -0.018 | C -0.075 | V -0.074 | Q -0.034 | I -0.103 | T 0.057 | P -0.013
C58: M -1.09 | T -0.918 | E -0.906 | S -1.1 | A -0.869 | R -0.929 | F -1.11 | H -0.287 | D -0.8 | N -1.05 | W -1.26 | Y -1.08 | P -0.762 | G -0.851 | I -1.39 | V -1.04
P49: H -0.132 | E 0.027 | C -0.318 | M -0.06 | V -0.082 | N -0.17 | I 0.002 | L -0.101 | R -0.022 | S -0.007 | D 0.026 | K 0.001 | A -0.046 | Y -0.258 | T 0.023 | G 0.062 | F -0.333
C55: M -1.11 | V -1.08 | P -0.891 | R -0.774 | S -0.897 | W -1.11 | G -0.913 | D -0.507 | Q -1.01 | T -1.16 | A -0.809 | L -1.09 | H -0.938 | N -0.615 | Y -0.913 | I -1.09 | F -1.05 | E -0.765
R50: D -0.017 | E 0.02 | V -0.177 | Q -0.059 | A 0.014 | P -0.033 | N 0.15 | S 0.057 | C -0.104 | M -0.028 | T 0.041 | I -0.242 | F -0.126 | G 0.014 | L -0.068 | H -0.06 | W -0.206 | K 0.025
A56: W -0.134 | V -0.128 | S -0.054 | F -0.265 | N -0.209 | Y -0.136 | H -0.031 | K -0.169 | G -0.057 | E -0.08 | R -0.12 | D -0.273 | M -0.02 | P -0.185 | T -0.054 | C -0.02
Y54: W -0.222 | N 0.007 | A -0.093 | G -0.187 | E -0.069 | P -0.35 | H 0.119 | Q 0.027 | T 0.067 | I -0.113 | V -0.068 | R 0.116 | S 0.04 | L 0.026
L51: I -0.282 | N -0.197 | D 0.013 | K 0.089 | Y -0.169 | S 0.049 | V -0.003 | T 0.037 | E 0.056 | W -0.108 | R 0.062 | A 0.042 | Q 0.02 | G 0.069 | P 0.035 | F -0.048 | H 0.063
N47: E -0.005 | F -0.162 | Q -0.092 | K -0.046 | S 0.035 | W -0.154 | V -0.066 | Y -0.223 | I -0.11 | G 0.02 | H 0.011 | L -0.05 | M -0.105 | C -0.013 | T -0.075 | A -0.166 | P -0.2
W53: P -0.302 | T -0.13 | V -0.398 | F -0.045 | Y -0.322 | H -0.266 | R -0.147 | Q -0.205 | L -0.283 | K -0.146 | N -0.112 | M -0.252 | D -0.104 | A -0.115 | G -0.27 | C -0.453
T59: C -0.25 | W -0.387 | I -0.103 | M -0.237 | P -0.142 | S 0.045 | Y -0.218 | N -0.205 | R -0.002 | D -0.072 | V -0.227 | G -0.13 | L -0.249 | A 0.016 | H 0.035 | F -0.254 | E 0.098
D48: S -0.119 | K -0.027 | H -0.081 | L -0.138 | M -0.085 | V -0.063 | F -0.254 | T 0.016 | R -0.154 | P -0.214 | I -0.187 | C -0.265 | Q -0.002 | E -0.054 | Y -0.178 | W -0.149 | G -0.083 | N -0.128
A46: V 0.008 | R -0.089 | Q -0.079 | T -0.136 | W -0.063 | N -0.082 | L 0.003 | M -0.201 | S -0.075 | P -0.202 | Y -0.029

Variants of: B2
Experiment: as above
Details: Homo sapiens

Abundance fitness: each site, then its substitutions
D4: F -0.234 | L -0.298 | K -0.068 | S -0.158 | E -0.156 | T -0.27 | G -0.228 | C -0.971 | Y -0.18 | V -0.351 | P -0.494 | N -0.018 | R -0.22 | H -0.192 | I -0.241 | A -0.466
L2: D -0.006 | H -0.211 | C -0.327 | G -0.074 | I -0.104 | F -0.061 | Q -0.023 | K 0.102 | M -0.074 | T -0.02 | A 0.01 | W -0.329 | Y 0.058 | P -1.13 | R -0.393 | V -0.044
D5: E -0.134 | H -0.426 | Y -0.258 | I -0.341 | C -0.17 | L -0.547 | N 0.004 | K -0.069 | V -0.313 | R -0.57 | T -0.178 | P -0.537 | A -0.21 | S -0.209 | Q -0.708 | G -0.388 | M 0.058 | W -0.531
K3: H -0.42 | N -0.133 | Q -0.664 | A -0.602 | S -0.55 | I -0.393 | M -0.431 | L -0.607 | D -0.539 | P -0.906 | R -0.618 | C -1.03 | V -0.687 | F -1.14 | E -0.475 | G -0.515 | Y -0.529
A7: F -0.028 | C -0.082 | D -0.039 | E 0.017 | H -0.176 | I -0.008 | G -0.09
E6: C 0.009 | D -0.078 | V -0.254 | T -0.014 | W -0.388 | H -0.185 | Q -0.203 | I 0.029 | L -0.425 | G 0.001 | N -0.121 | F -0.295 | M -0.316 | A -0.085 | R -0.336 | Y -0.191 | K 0.126 | S -0.165 | P -0.236
W1: G 0.131 | S 0.121 | A -0.014 | E -0.138 | D 0.445 | V -0.005 | T -0.286 | M 0.253 | C 0.094 | N 0.251 | L -0.05 | F -0.106 | Y 0.311 | R -0.182 | K 0.249
